Laboratory results as given in article PMC7826279 (Nucleic Acids Research, 2021).
Substitutions are numbered along the chain they refer to. Names and notes keep the numbering of the source. Each block holds one binder with its values, some of them ahead of it.

Columns and labels:
Test in all cases: pull-down
phosphorylated CTD-GFP = phosphorylated CTD-GFP (S. pombe, UniProt P36594 1549-1751, phosphorylated (sites not told for this preparation))
Ssu72-His = target: T1, Ssu72-His (S. pombe, UniProt O42868 1-197)
T1 sequence (looked up): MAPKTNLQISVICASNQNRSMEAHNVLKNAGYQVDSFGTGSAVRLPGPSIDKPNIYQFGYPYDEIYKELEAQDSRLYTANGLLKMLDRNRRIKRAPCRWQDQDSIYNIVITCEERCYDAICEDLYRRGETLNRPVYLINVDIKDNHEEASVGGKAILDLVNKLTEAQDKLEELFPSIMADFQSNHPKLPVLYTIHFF

Sty1-His = target: T2, Sty1-His (S. pombe, UniProt Q09892 1-349)
T2 sequence (looked up): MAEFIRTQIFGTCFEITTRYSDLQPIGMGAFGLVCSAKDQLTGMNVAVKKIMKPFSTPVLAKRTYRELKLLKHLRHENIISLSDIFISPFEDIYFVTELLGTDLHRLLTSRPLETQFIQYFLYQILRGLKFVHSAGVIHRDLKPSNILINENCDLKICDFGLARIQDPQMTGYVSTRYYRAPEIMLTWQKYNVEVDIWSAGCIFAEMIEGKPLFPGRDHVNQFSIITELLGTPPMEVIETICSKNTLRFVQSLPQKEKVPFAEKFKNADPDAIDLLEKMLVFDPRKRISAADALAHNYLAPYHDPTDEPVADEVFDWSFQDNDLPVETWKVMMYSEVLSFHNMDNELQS

Sty1 (K49R)-His = target: T3, Sty1 (K49R)-His (S. pombe, UniProt Q09892 1-349, K49R)
T3 sequence (looked up): T2 sequence (looked up) with K49R

Sequence of phosphorylated CTD-GFP (P36594 1549-1751): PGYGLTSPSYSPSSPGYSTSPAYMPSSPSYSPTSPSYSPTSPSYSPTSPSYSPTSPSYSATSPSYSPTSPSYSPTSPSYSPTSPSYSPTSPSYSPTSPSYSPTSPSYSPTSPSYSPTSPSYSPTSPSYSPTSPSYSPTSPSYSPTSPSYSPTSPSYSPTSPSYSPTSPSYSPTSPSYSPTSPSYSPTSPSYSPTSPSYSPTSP

- binding result (phosphorylated CTD-GFP): binds
- binding result (Ssu72-His): binds
B1: Pin1-GST (natural protein, S. pombe, UniProt O74448 1-175, looked up)
chain: MSNTGLPKPWIVKISRSRNRPYFFNTETHESLWEPPAATDMAALKKFIANELQESVTPTEASNSPKIRASHLLVKHRESRRPSSWKEEHITRSKEEARKLAEHYEQLLKSGSVSMHDLAMKESDCSSARRGGELGEFGRDEMQKPFEDAAFALKPGEISGVVETSSGFHIIQRHA

- binding result (phosphorylated CTD-GFP): binds
B2: Pin1 (S79E)-GST (natural protein, S. pombe, UniProt O74448 1-175, looked up)
chain: B1 chain with S79E

- binding result (Sty1-His): binds
- binding result (Sty1 (K49R)-His): binds
B3: GST-Rpb1-CTD (domain or fragment)
chain: not shown
